In US20230212267A1 (WISTAR INSTITUTE OF ANATOMY AND BIOLOGY, published 2023):

Key:
[1] = biological target: T1, recombinant SARS-CoV-2 receptor binding domain (RBD) (Examples 1 and 2) (SARS-CoV-2, UniProt P0DTC2 319-541); test: ELISA, axis RBD Binding (OD450), D14 sera of mice given the S309 DMAb
T1 construct: also called SARS-CoV-2 RBD

[2] = biological target: T2, recombinant SARS-CoV-2 S1 (Examples 1 and 2) (SARS-CoV-2, UniProt P0DTC2 16-685); test: ELISA with sera of DMAb-treated mice
T2 construct: domain: Subunit 1 (S1); also called Subunit 1 (S1) domain; S1 domains

[3] = biological target: T1, recombinant SARS-CoV-2 receptor binding …; test: ELISA, axis RBD Binding (OD450), serial dilutions of in vitro expressed DMAb
[4] = biological target: recombinant SARS-CoV-2-RBD (Sino Biological) (SARS-CoV-2, UniProt P0DTC2 319-541)
[5] = biological target: SARS-CoV-2 Spike protein on pseudovirus (wild type) (SARS-CoV-2, UniProt P0DTC2 14-1273); test: cell-based or functional assay

B1: S309 SARS-CoV-2 DMAb (antibody, V domains shown)
VH: QVQLVQSGAEVKKPGASVKVSCKASGYTFTSYGISWVRQAPGQGLEWMGWISAYNGNTNYAQKLQGRVTMTTDTSTSTAYMELRSLRSDDTAVYYCARDYTRGAWFGESLIGGFDNWGQGTLVTVSA
VL: EIVLTQSPGTLSLSPGERATLSCRASQSVSSSYLAWYQQKPGQAPRLLIYGASSRATGIPDRFSGSGSGTDFTLTISRLEPEDFAVYYCQQHDTSLTFGQGTKVEIKR
notes: also called S309 DMAb
binding result [1]: binds

B2: 2381 DMAb (antibody)
heavy: not shown
light: EVVLTQSPGTLSLSPGERATLSCRASQSVSSSYLAWYQQKPGQAPRLLIYGASSRATGIPDRFSGSGSGTDFTLTISRLEPEDFAVYHCQHFGSSSQWTFGQGTKVEIKRTVAAPSVFIFPPSDEQLKSGTASVVCLLNNFYPREAKVQWKVDNALQSGNSQESVTEQDSKDSTYSLSNTLTLSKADYEKHKVYACEVTHQGLSSPVTKSFNRGEC
binding result [2]: binds

B3: 2381 (GK) (antibody)
heavy: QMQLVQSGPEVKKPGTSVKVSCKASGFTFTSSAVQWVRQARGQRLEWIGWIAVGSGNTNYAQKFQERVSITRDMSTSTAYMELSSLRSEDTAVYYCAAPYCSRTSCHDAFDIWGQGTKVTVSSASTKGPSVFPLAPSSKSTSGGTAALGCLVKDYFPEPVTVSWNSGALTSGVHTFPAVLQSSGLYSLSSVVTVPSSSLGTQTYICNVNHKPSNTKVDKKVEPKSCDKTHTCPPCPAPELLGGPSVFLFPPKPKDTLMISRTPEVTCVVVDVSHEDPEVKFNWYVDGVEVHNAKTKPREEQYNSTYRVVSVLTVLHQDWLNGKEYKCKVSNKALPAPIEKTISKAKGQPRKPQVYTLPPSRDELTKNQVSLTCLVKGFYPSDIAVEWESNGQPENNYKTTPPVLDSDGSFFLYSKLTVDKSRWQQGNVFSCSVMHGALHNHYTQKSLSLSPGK
light: EVVLTQSPGTLSLSPGERATLSCRASQSVSSSYLAWYQQKPGQAPRLLIYGASSRATGIPDRFSGSGSGTDFTLTISRLEPEDFAVYHCQHFGSSSQWTFGQGTKVEIKRTVAAPSVFIFPPSDEQLKSGTASVVCLLNNFYPREAKVQWKVDNALQSGNSQESVTEQDSKDSTYSLSNTLTLSKADYEKHKVYACEVTHQGLSSPVTKSFNRGEC
binding result [3]: binds

B4: 2381 (G) (antibody)
heavy: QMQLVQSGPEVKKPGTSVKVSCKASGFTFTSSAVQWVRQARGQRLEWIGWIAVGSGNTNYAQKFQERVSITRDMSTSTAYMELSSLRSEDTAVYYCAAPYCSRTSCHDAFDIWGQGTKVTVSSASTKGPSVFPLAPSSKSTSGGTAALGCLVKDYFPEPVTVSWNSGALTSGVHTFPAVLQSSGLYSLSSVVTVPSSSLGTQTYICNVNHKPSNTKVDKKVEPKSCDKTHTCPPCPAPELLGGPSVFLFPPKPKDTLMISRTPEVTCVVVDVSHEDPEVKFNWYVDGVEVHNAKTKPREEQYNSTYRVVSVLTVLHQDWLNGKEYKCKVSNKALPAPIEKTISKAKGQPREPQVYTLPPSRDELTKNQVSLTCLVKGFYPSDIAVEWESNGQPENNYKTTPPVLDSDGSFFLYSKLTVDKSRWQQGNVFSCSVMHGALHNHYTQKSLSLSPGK
light: EVVLTQSPGTLSLSPGERATLSCRASQSVSSSYLAWYQQKPGQAPRLLIYGASSRATGIPDRFSGSGSGTDFTLTISRLEPEDFAVYHCQHFGSSSQWTFGQGTKVEIKRTVAAPSVFIFPPSDEQLKSGTASVVCLLNNFYPREAKVQWKVDNALQSGNSQESVTEQDSKDSTYSLSNTLTLSKADYEKHKVYACEVTHQGLSSPVTKSFNRGEC
binding result [3]: binds

B5: 2196 DMAb (antibody, V domains shown)
VH: QMQLVQSGPEVKKPGTSVKVSCKASGFTFTSSAVQWVRQARGQRLEWIGWIAVGSGNTNYAQKFQERVSITRDMSTSTAYMELSSLRSEDTAVYYCAAPYCSSISCNDGFDIWGQGTKVTVSS
VL: EVVLTQSPGTLSLSPGERATLSCRASQSVSSSYLAWYQQKPGQAPRLLIYGASSRATGIPDRFSGSGSGTDFTLTISRLEPEDFAVYHCQHYGSSSQWTFGQGTKVEIKR
notes: also called 2196 WT DMAb
binding result [2]: binds
binding result [3]: binds

B6: WCoVA7 (antibody, V domains shown)
VH: EVKLLESGGGLVQPGGSLKLSCAASGFDFSRYWMSWVRQAPGKGLEWIGEINPDSSTINYTPSLKDKFIISRDNAKNTLYLQMSKVRSEDTALYYCARIYYGSPGAMDYWGQGTSVTVSS
VL: SIVMTQTPKFLLVSAGDRVTITCKASQSVSNDVAWYQQKPGQSPKLLIYYASNRYTGVPDRFTGSGYGTDFTFTISTVQAEDLAVYFCQQDYFSPYTFGGGTKLEIK
Kd [4]: 0.28 nM
koff [4]: 9.3e-05 s⁻¹
kon [4]: 330000 M⁻¹ s⁻¹
t1/2 [4]: 124 min
IC50, pseudovirus neutralization (wild type virus) [5]: 2.6 ng/mL

B7: WCoVA9 (antibody, V domains shown)
VH: EVQLQQSGAELVKPGASVKLSCTASGFNIKDTYMHWVKQRPEQGLEWIGRIDPANGNTKYDPKFQAKATITANTSSNTAYLHLSSLTSEDTAVYYCAPYYDYVGAMDYWGQGTSVTVSS
VL: DIQMTQSPASQSASLGESVTITCLASQTIGTWLAWYQQKPGKSPQLLIYAATSLADGVPSRFSGSGSGTKFSFKISSLQAEDFVSYYCQQLYNTPLTFGGGTKLEIK
Kd [4]: 0.042 nM
koff [4]: 1.9e-05 s⁻¹
kon [4]: 470000 M⁻¹ s⁻¹
t1/2 [4]: 607 min
IC50, pseudovirus neutralization (wild type virus) [5]: 4.9 ng/mL
